The supplement of paper PMC7125110
± gives the standard error. For some of these results: Fewer inactive variants are shown than the library holds.

B1: glmS ribozyme (parent)
chain: AUAAAAGCGCCAGAACUACAGAAAUGUAGUUGACGAGGAGGAGGUUUAUCGAAUUUUCGGCGGAUGCCUCCAAA

Columns and labels:
Conditions in all cases: with glucosamine-6-phosphate
[1] = variants of: B1; experiment: kcat; higher = faster cleavage; RNA array
Summary of the method: (§1)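 In situ transcription by E. coli RNA polymerase produced barcoded ribozyme variants on sequenced MiSeq chips, and a hybridised Cy3 probe tracked them at 37 °C. Glucosamine-6-phosphate was flowed in at 40 μM to 10 mM in HEPES/KCl/Mg(OAc)2 buffer. kcat and KM were taken from weighted Michaelis–Menten fits of kobs values from exponential decay fits.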

[2] = variants of: B1; experiment: self-cleavage kobs at 160 uM GlcN6P; higher = faster cleavage; RNA array
Summary of the method: as §1

[3] = variants of: B1; experiment: self-cleavage kobs at 640 uM GlcN6P; higher = faster cleavage; RNA array
Summary of the method: as §1

[4] = variants of: B1; experiment: self-cleavage kobs at 2500 uM GlcN6P; higher = faster cleavage; RNA array
Summary of the method: as §1

[5] = variants of: B1; experiment: self-cleavage kobs at 10000 uM GlcN6P; higher = faster cleavage; RNA array
Summary of the method: as §1

[6] = variants of: B1; experiment: self-cleavage kobs at 40 uM GlcN6P; higher = faster cleavage; RNA array
Summary of the method: as §1

[7] = variants of: B1; experiment: KM; higher = weaker cofactor use; RNA array
Summary of the method: as §1

| Variant | kcat [1] [s⁻¹] | self-cleavage kobs at 160 uM GlcN6P [2] [s⁻¹] | self-cleavage kobs at 640 uM GlcN6P [3] [s⁻¹] | self-cleavage kobs at 2500 uM GlcN6P [4] [s⁻¹] | self-cleavage kobs at 10000 uM GlcN6P [5] [s⁻¹] | self-cleavage kobs at 40 uM GlcN6P [6] [s⁻¹] | KM [7] [µM] |
| --- | --- | --- | --- | --- | --- | --- | --- |
| AUAAAAGCGCCAGAACUACAGAAAUGUAGUUUACGAGGAGGAGGUUAAUCGAAUUUUCGGCGGAUGCCUCCAAA [G32U U47A] | 0.000688 ± 0.00026 | 5.78e-05 ± 1.8e-05 | 8.3e-05 ± 2e-05 | 0.000375 ± 0.00014 | 0.000493 ± 0.00011 |  |  |
| AUAAAAGCGCCAGAACUACAGAAAUGUAGUUGACGAGCAGGAGGUUUAUCGCAUUUUCGGCGGAUGCCUCCAAA [G38C A52C] | < 1e-05 | < 1e-05 |  |  | < 1e-05 | < 1e-05 |  |
| AUAAAAGCGCCAGAACUACAGAAAUGUAGUUGACGAGGAUGAGGUUUGUCGAAUUUUCGGCGGAUGCCUCCAAA [G40U A48G] | 8.97e-05 ± 4.3e-05 |  |  |  | 3.18e-05 ± 8.1e-06 | < 1e-05 |  |
| AUAAAAGCGCCAGAACUACAGAAAUGUAGUUGACGAGGAGGAGGUUUAUCGAAUUUUCGGCGGAUCCCUUCAAA [G66C C70U] | 0.00129 ± 0.00032 | 0.000178 ± 3.5e-05 | 0.000285 ± 4.7e-05 | 0.00109 ± 0.00013 | 0.0011 ± 0.00011 | 4.77e-05 ± 9.1e-06 | 1440 ± 670 |
| AUAAAAGCGCCAGAAAUACAGAAAUGUAGUUGACGAGGAGGCGGUUUAUCGAAUUUUCGGCGGAUGCCUCCAAA [C16A A42C] | < 1e-05 | < 1e-05 |  | < 1e-05 | < 1e-05 | < 1e-05 |  |
| AUAAAAGCGCCAGAACUACAGAAAUGUAGUUGACGAUGAGGAGGAUUAUCGAAUUUUCGGCGGAUGCCUCCAAA [G37U U45A] | < 1e-05 | < 1e-05 |  |  |  |  |  |
| AUAAAAGCGCCAGAACUACAGAAAUGUACUUUACGAGGAGGAGGUUUAUCGAAUUUUCGGCGGAUGCCUCCAAA [G29C G32U] | 0.000823 ± 0.00021 |  |  | 0.000226 ± 6.2e-05 | 0.000448 ± 0.00016 |  | 7540 ± 2900 |
| AUAAAAGCGCCAGAACUACAGAAAUGUAGUUGACGAGGAGGAGGUUUAUCGAUUUUUCGGCGGACGCCUCCAAA [A53U U65C] | 0.000266 ± 3.1e-05 |  | 8.76e-05 ± 1.6e-05 | 0.000196 ± 5.3e-05 | 0.000222 ± 4.6e-05 |  | 1370 ± 310 |
| AUAAAAGCGCCAGAACUACAGAAAUGUAUUUGACGAGGAGGAGGUUUAUCGAAUUUUCGGCGGAUGACUCCAAA [G29U C67A] | 0.000685 ± 0.00017 | 9.85e-05 ± 1.4e-05 | 0.000276 ± 3.9e-05 | 0.000437 ± 5.6e-05 | 0.000787 ± 8.4e-05 | 5.58e-05 ± 7.8e-06 | 812 ± 370 |
| AUAAAAGCGCCAGAACUACAGAAAUGUAGUUGACAAGUAGGAGGUUUAUCGAAUUUUCGGCGGAUGCCUCCAAA [G35A G38U] | < 1e-05 | < 1e-05 |  |  |  |  |  |
| AUAAAAGCGCCACAAUUACAGAAAUGUAGUUGACGAGGAGGAGGUUUAUCGAAUUUUCGGCGGAUGCCUCCAAA [G13C C16U] | 0.0002194 ± 1.1e-06 |  |  | 8.19e-05 ± 2.5e-05 | 0.000155 ± 1.9e-05 |  | 4190 ± 58 |
| AUAAAAGCGCCAGAACUACAGAAAUGUAGUGGACGAGGAGGAGGAUUAUCGAAUUUUCGGCGGAUGCCUCCAAA [U31G U45A] | 0.0285 ± 0.0073 | 0.00206 ± 0.0004 | 0.00653 ± 0.0013 | 0.0105 ± 0.0037 | 0.0291 ± 0.0063 | 0.000531 ± 0.00011 | 2180 ± 720 |
| AUAAAAGCGCCAGAACUACAGAAAUGUAGUUGACGAGGAGGAGGUUUAUCGAAUUUUGGGCGGAUGCCGCCAAA [C58G U69G] | 4.22e-05 ± 1.4e-05 | 6.03e-05 ± 1.5e-05 | 5.7e-05 ± 1.7e-05 | 5.1e-05 ± 1.6e-05 |  |  |  |
| AUAAAAGCGCCAGAACUACAGAAAUGUACUUGACGAGGAGUAGGUUUAUCGAAUUUUCGGCGGAUGCCUCCAAA [G29C G41U] | 5.56e-05 ± 4e-07 |  |  | 3.01e-05 ± 1.1e-05 | 4.6e-05 ± 7.7e-06 |  | 2090 ± 57 |
| AUAAAAGCGCCAGAACUACAGAAAUGUAGUUGACGAGGAGGAGGUUUAUCGAAUUUUCGGCGGUUGCCUCUAAA [A64U C71U] | 0.000158 ± 5.9e-05 |  | 3.94e-05 ± 1.3e-05 | 3.79e-05 ± 1.6e-05 | 0.000112 ± 1.6e-05 |  |  |
| AUAAAAGCGCCUGAACUACAGAAAUGUAGUUGACGAGGAGGGGGUUUAUCGAAUUAUCGGCGGAUGUCUCCAAA [A12U A42G U56A C67U] | 0.004 ± 0.00068 |  | 0.00156 ± 0.00046 |  | 0.00431 ± 0.0015 | 0.000207 ± 5.3e-05 | 794 ± 200 |
| AUAAAAGCGCCAGACCUACAGAAAUGUAGUUGACGAGGAGGAGGUUUAUCGAAUAUUCGGCGGAUGCCUCCAAA [A15C U55A] | 0.00649 ± 0.0016 | 0.000516 ± 8.7e-05 | 0.00128 ± 0.00023 | 0.00484 ± 0.00095 | 0.0054 ± 0.00095 | 0.000161 ± 2.8e-05 | 1920 ± 650 |
